Among the data in PMC2818874 are stoichiometry N values, retold here.

What is called stoichiometry N is the number of molecules, sites or subunits per partner or assembly.

The assay addresses Cytosolic His-tag version of human IRE1α (IRE1ΔN-HIS) (human).

Substance “Cytosolic His-tag version of human IRE1α (IRE1ΔN-HIS) (domain or fragment)” displayed a stoichiometry N of 2.
